Values quoted from earlier work in patent US20170290929A1, “GRP78 TARGETED CONJUGATES” (University of Iowa Research Foundation, priority 2014, published 2017).
Ends that are not written are not given here.

Target: GRP78 (Homo sapiens, UniProt P11021)
Conditions: cell free binding assays

Sequence of GRP78 (P11021 19-654, species assumed): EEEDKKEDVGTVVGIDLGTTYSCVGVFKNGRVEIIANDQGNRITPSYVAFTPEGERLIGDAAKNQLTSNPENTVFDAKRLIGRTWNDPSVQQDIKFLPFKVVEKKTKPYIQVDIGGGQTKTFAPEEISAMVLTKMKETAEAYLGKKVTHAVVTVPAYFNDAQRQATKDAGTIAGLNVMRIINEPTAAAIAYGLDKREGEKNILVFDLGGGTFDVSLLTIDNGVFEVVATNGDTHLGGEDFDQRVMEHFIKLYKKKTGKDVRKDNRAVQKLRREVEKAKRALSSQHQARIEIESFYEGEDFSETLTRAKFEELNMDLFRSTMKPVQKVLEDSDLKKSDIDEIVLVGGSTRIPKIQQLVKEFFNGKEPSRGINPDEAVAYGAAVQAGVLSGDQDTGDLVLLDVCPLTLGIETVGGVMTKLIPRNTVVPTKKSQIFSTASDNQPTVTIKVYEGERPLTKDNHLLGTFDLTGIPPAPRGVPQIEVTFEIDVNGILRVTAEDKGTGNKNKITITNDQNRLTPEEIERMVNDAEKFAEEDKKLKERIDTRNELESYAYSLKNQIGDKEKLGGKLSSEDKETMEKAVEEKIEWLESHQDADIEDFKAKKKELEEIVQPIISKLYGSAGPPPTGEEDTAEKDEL

PEP42: 13-mer cyclic peptide, amino acid sequence CTVALPGGYVRKC (SEQ ID NO:1) (also: cyclic)
binding with GRP78: shown to bind with GRP78
